Patent publication US20230220063A1, “IL-1BETA BINDING ANTIBODIES FOR USE IN TREATING CANCER” (NOVARTIS AG, priority 2017, published 2023)

Assays:
[1] = tested on: post-myocardial infarction patients with elevated hsCRP
[2] = tested on: patients with a prior heart attack and inflammatory atherosclerosis; assay: CANTOS primary endpoint: major adverse cardiovascular events (MACE); type: in vivo, human; details: in combination with standard of care
Excerpt: The present invention arose, at least in part, from the analysis of the data generated from the CANTOS trial, which is a randomized, double-blind, placebo-controlled, event-driven trial. […] Participants were followed for incident cancer diagnoses over a median follow-up period of 3.7 years.
MACE is a composite of cardiovascular death, non-fatal myocardial infarction and non-fatal stroke.

[3] = tested on: vasculature in trabecular bone; assay: Blocking IL-1β signalling: blood vessels in the bone microenvironment of mice; type: in vivo
Method: Vasculature was visualised following CD34 and endomucin immunohistochemistry and the concentration of vascular endothelial growth factor (VEGF) and endothelin-1 in serum and/or bone marrow was determined by ELISA. Effects on bone volume were measured by Micro computed tomography (uCT).
(§1) Tumor cells, serum, and bone were subsequently resected for downstream analysis.

[4] = molecular target: mouse IL-1β (Mus musculus, UniProt P10749); assay: Cross-reactivity with mouse IL-1β; type: binding
Excerpt: A mouse surrogate anti-IL-1β antibody has been developed and is being used to evaluate the effects of blocking IL-1β in mouse models of cancer. This isotype of the surrogate antibody is IgG2a, which is closely related to human IgG1.

[5] = tested on: MDA-MB-231 Luc2-TdTomato cells; assay: Spontaneous human breast cancer metastasis to human bone implants in NOD SCID mice; type: in vivo
Method: To model human breast cancer metastasis to human bone implants two human bone discs were implanted subcutaneously into 10-week old female NOD SCID mice (n=10/group) under isofluorane anaesthetic. Mice received an injection of 0.003 mg vetergesic and Septrin was added to the drinking water for 1 week following bone implantation. Mice were left for 4 weeks before injecting 1×10^5 MDA-MB-231 Luc2-TdTomato, MCF7 Luc2 or T47D Luc2 cells in 20% Martigel/79% PBS/1% […] into the two hind mammary fat pads. Primary tumor growth and development of metastases was monitored weekly using an IVIS […] system (Caliper Life Sciences) following sub-cutaneous injection of 30 mg/ml D-luciferin (Invitrogen). On termination of experiments mammary tumors, circulating tumor cells, serum and bone metastases were resected. RNA was processed for downstream analysis by real time PCR, and cell lysates were taken for protein analysis and whole tissue for histology as previously described (Nutter et al., 2014; Ottewell et al., 2014a).
as §1
Whole blood was centrifuged at 10,000 g for 5 minutes and the serum removed for ELISA assays. The cell pellet was re-suspended in 5 ml of FSM lysis solution (Sigma-Aldrich, Pool, UK) to lyse red blood cells. Remaining cells were re-pelleted, washed 3x in PBS and re-suspended in a solution of PBS/10% FCS. Samples from 10 mice per group were pooled prior to isolation of TdTomato positive tumor cells using a MoFlow High performance cell sorter (Beckman Coulter, Cambridge UK) with the […] laser line from a Coherent I-90C tenable argon ion (Coherent, Santa Clara, CA). TdTomato fluorescence was detected by a 555LP dichroic long pass and a 580/30 nm band pass filter. Acquisition and analysis of cells was performed using Summit 4.3 software. Following sorting cells were immediately placed in RNA protect cell reagent (Ambion, Paisley, Renfrew, UK) and stored at -80° C. before RNA extraction.

[6] = murine model of spontaneous human breast cancer metastasis to human bone

mouse IL-1β, sequence (P10749 118-269): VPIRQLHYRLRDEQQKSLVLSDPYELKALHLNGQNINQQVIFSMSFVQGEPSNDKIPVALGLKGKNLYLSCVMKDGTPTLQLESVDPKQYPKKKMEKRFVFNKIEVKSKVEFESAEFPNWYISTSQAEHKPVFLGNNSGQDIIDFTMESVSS

Substance: canakinumab: high-affinity, fully human monoclonal antibody of the IgG1/k to interleukin-1β; INN number 8836
- all-cause mortality, HR ([1]; canakinumab groups vs placebo): 0.94
- non-cardiovascular mortality, HR ([1]; canakinumab groups vs placebo): 0.97
- Anemia (AE reports) ([1]; in vivo): 275 (1.11)
- Erythrocytes (at 12 months): High (>6.8) ([1]; in vivo): 4 (0.07) N (%)
- Erythrocytes (at 12 months): Low (<3.3) ([1]; in vivo): 19 ( 0.32) N (%)
- Erythrocytes (at 12 months): Normal (3.3-6.8) ([1]; in vivo): 6002 (99.6) N (%)
- Leucocytes (at 12 months): High (>15,000) ([1]; in vivo): 20 (0.33) N (%)
- Leucocytes (at 12 months): Low (<3000) ([1]; in vivo): 27 (0.45) N (%)
- Leucocytes (at 12 months): Normal (3000-<15000) ([1]; in vivo): 5978 (99.2) N (%)
- Leukopenia (AE reports) ([1]; in vivo): 100 (0.40)
- Neutropenia (AE reports) ([1]; in vivo): 25 (0.10)
- Neutrophils (at 12 months): Grade 1 (1500-<LLN) ([1]; in vivo): 14 (0.24) N (%)
- Neutrophils (at 12 months): Grade 2 (1000-<1500) ([1]; in vivo): 28 (0.47) N (%)
- Neutrophils (at 12 months): Grade 3 (500-<1000) ([1]; in vivo): 5 (0.08) N (%)
- Neutrophils (at 12 months): Grade 4 (<500) ([1]; in vivo): 0 (0.00) N (%)
- Neutrophils (at 12 months): Normal N (%) ([1]; in vivo): 5891 (99.2) N (%)
- Platelets (at 12 months): Grade 1 (75,000-<LLN) ([1]; in vivo): 782 (13.0) N (%)
- Platelets (at 12 months): Grade 2 (50,000-<75,000) ([1]; in vivo): 10 (0.17) N (%)
- Platelets (at 12 months): Grade 3 (25,000-<50,000) ([1]; in vivo): 4 (0.07) N (%)
- Platelets (at 12 months): Grade 4 (<25,000) ([1]; in vivo): 0 (0.00) N (%)
- Platelets (at 12 months): Normal N (%) ([1]; in vivo): 5216 (86.8) N (%)
- Thrombocytopenia (AE reports) ([1]; in vivo): 150 (0.60)
- Serious tuberculosis infections ([1]; similar rates in canakinumab and placebo treated groups): 0.06%
- risk of major adverse cardiovascular events (MACE) [2]: reduces the risk of major adverse cardiovascular events
- length of new blood vessels ([3]; 24 hours Ilaris, control 0.09 mm): 0.06 mm
- endothelin 1 and VEGF in the bone marrow (ELISA) ([3]; compared with control): reduced concentrations
- reduction in VEGF concentration ([3]; mice treated for 96 hours): 46%
- reduction in endothelin-1 concentration ([3]; mice treated for 96 hours): 47%
- average length of CD34^+ blood vessels in trabecular bone ([3]; p < 0.01 vs control): reduced the average length of CD34^+ blood vessels
- cross-reactivity with mouse IL-1β [4]: does not cross-react
- mice with metastasis detected in human bone implants ([5]; 1 mg/kg IL-1Ra daily or 10 mg/kg canakinumab s.c. every 14 days from day 7, control 7 out of 10): 1 out of 10
- bone metastasis, photons/sec mean values ([5]; Placebo 3.60E+06): 6.01E+04 photons/sec
- size of bone metastases ([5]; compared with control group): smaller than those detected in the control group
- bone turnover and neovascularisation ([5]; mouse, in vivo): reduced bone turnover and neovascularisation
- bone metastasis [5, 6]: significantly reduced bone metastasis
- primary tumour growth [5, 6]: increasing primary tumour growth
- tumor cells counted in whole blood ([5]; placebo 108 tumor cells/ml): 3 tumor cells/ml
